From PMC5376645, “Long-acting protein drugs for the treatment of ocular diseases” (Nature Communications, 2017)

Columns and labels:
[1] = target: T1, human VEGF-A165 (VEGF homodimer with each monomer having 165 amino acid residues) (Homo sapiens, UniProt P15692-4, strain, biotin (site not stated; named for Supplementary Table 2 only)); assay: inhibition of binding of hVEGF-A165 to hVEGFR2-Fc (luminescence read-out); antibody titrated (pM); binding signal in relative luminescence units; triplicates; conditions: both partners purified
T1 construct: also called hVEGF-A165; hVEGF; source: bought: Peprotech (catalogue number AF-100-20)

[2] = target: T1, human VEGF-A165 (VEGF homodimer with …); assay: SPR; Biacore as per the manufacturer's protocol; kinetic rate constants and affinity of the Fab constructs for biotinylated hVEGF-A165; conditions: both partners purified

T1 sequence (P15692 whole entry, looked up, change not shown): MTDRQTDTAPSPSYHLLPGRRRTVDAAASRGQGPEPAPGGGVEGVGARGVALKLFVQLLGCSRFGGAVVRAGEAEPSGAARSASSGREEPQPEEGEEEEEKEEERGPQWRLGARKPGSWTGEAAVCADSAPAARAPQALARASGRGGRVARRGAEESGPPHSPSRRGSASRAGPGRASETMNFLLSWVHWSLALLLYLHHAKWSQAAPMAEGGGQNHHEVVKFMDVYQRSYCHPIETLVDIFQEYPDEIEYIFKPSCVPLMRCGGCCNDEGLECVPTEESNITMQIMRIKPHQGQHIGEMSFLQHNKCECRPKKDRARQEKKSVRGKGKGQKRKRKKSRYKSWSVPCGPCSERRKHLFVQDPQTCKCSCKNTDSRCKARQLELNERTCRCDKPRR

IC50 [1] | Kd [2] | koff [2] | kon [2] | Binder
0.263 nM | 14.2 pM | 7.87e-05 s⁻¹ | 5.51e+06 M⁻¹ s⁻¹ | NVS0, the Fab version of brolucizumab (Fab, V domains shown, as the Fab part of the heavy chain of Dm4 (LAVA1), without the GSGGG linker and the LINK domain; as the light chain of Dm4 (LAVA1); Made by converting the anti-VEGF scFv brolucizumab to a Fab format; also called untagged anti-VEGF Fab) VH: EVQLVESGGGLVQPGGSLRLSCTASGFSLTDYYYMTWVRQAPGKGLEWVGFIDPDDDPYYATWAKGRFTISRDNSKNTLYLQMNSLRAEDTAVYYCAGGDHNSGWGLDIWGQGTLVTVSS VL: EIVMTQSPSTLSASVGDRVIITCQASEIIHSWLAWYQQKPGKAPKLLIYLASTLASGVPSRFSGSGSGAEFTLTISSLQPDDFATYYCQNVYLASTNGANFGQGTKLTVL
0.28 nM | 0.176 pM | 1.01e-05 s⁻¹ | 5.75e+07 M⁻¹ s⁻¹ | LAVA1 (NVS24): NVS0 Fab with the LINK domain of human TSG6 fused to the C terminus of the heavy chain (Fab, V domains shown, Fab heavy chain of NVS0 (from brolucizumab); linker; TSG6 (TNF-stimulated gene 6 protein), human, LINK domain; Fab light chain of NVS0 (from brolucizumab); The LINK domain has a natural N-linked glycosylation site) VH: EVQLVESGGGLVQPGGSLRLSCTASGFSLTDYYYMTWVRQAPGKGLEWVGFIDPDDDPYYATWAKGRFTISRDNSKNTLYLQMNSLRAEDTAVYYCAGGDHNSGWGLDIWGQGTLVTVSS VL: EIVMTQSPSTLSASVGDRVIITCQASEIIHSWLAWYQQKPGKAPKLLIYLASTLASGVPSRFSGSGSGAEFTLTISSLQPDDFATYYCQNVYLASTNGANFGQGTKLTVL
– | 4.13 pM | 0.000257 s⁻¹ | 6.23e+07 M⁻¹ s⁻¹ | LAVA46, variant of LAVA1 with an additional disulfide bond in the LINK domain (Fab, V domains shown, as the Fab part of the heavy chain of Dm4 (LAVA1); linker; TSG6, human, LINK domain (HABP), with cysteine residues introduced for an additional disulfide bond and substitutions at and around the observed digestion sites; as the light chain of Dm4 (LAVA1); The substitutions are in Supplementary Data 2) VH: EVQLVESGGGLVQPGGSLRLSCTASGFSLTDYYYMTWVRQAPGKGLEWVGFIDPDDDPYYATWAKGRFTISRDNSKNTLYLQMNSLRAEDTAVYYCAGGDHNSGWGLDIWGQGTLVTVSS VL: EIVMTQSPSTLSASVGDRVIITCQASEIIHSWLAWYQQKPGKAPKLLIYLASTLASGVPSRFSGSGSGAEFTLTISSLQPDDFATYYCQNVYLASTNGANFGQGTKLTVL
0.248 nM | – | – | – | brolucizumab, an anti-VEGF scFv (scFv, V domains shown, NVS0 is the Fab version of this scFv) VH: EVQLVESGGGLVQPGGSLRLSCTASGFSLTDYYYMTWVRQAPGKGLEWVGFIDPDDDPYYATWAKGRFTISRDNSKNTLYLQMNSLRAEDTAVYYCAGGDHNSGWGLDIWGQGTLVTVSS VL: EIVMTQSPSTLSASVGDRVIITCQASEIIHSWLAWYQQKPGKAPKLLIYLASTLASGVPSRFSGSGSGAEFTLTISSLQPDDFATYYCQNVYLASTNGANFGQGTKLTVL
0.207 nM | 4.53 pM | 0.000185 s⁻¹ | 4.1e+07 M⁻¹ s⁻¹ | LAVA2, protease-resistant variant of LAVA1 (Fab, V domains shown, as the Fab part of the heavy chain of Dm4 (LAVA1); linker; TSG6, human, LINK domain (HABP), with amino acid substitutions around the observed proteolytic sites; as the light chain of Dm4 (LAVA1); The substitutions are in Supplementary Data 2) VH: EVQLVESGGGLVQPGGSLRLSCTASGFSLTDYYYMTWVRQAPGKGLEWVGFIDPDDDPYYATWAKGRFTISRDNSKNTLYLQMNSLRAEDTAVYYCAGGDHNSGWGLDIWGQGTLVTVSS VL: EIVMTQSPSTLSASVGDRVIITCQASEIIHSWLAWYQQKPGKAPKLLIYLASTLASGVPSRFSGSGSGAEFTLTISSLQPDDFATYYCQNVYLASTNGANFGQGTKLTVL
– | 11.5 pM | 0.000213 s⁻¹ | 1.86e+07 M⁻¹ s⁻¹ | LAVA25, non-glycosylated variant of LAVA1 (Fab, V domains shown, as the Fab part of the heavy chain of Dm4 (LAVA1); linker; TSG6, human, LINK domain (HABP), the N-linked glycosylation site deleted by substitution of the asparagine residue; as the light chain of Dm4 (LAVA1); The substitution is in Supplementary Data 2) VH: EVQLVESGGGLVQPGGSLRLSCTASGFSLTDYYYMTWVRQAPGKGLEWVGFIDPDDDPYYATWAKGRFTISRDNSKNTLYLQMNSLRAEDTAVYYCAGGDHNSGWGLDIWGQGTLVTVSS VL: EIVMTQSPSTLSASVGDRVIITCQASEIIHSWLAWYQQKPGKAPKLLIYLASTLASGVPSRFSGSGSGAEFTLTISSLQPDDFATYYCQNVYLASTNGANFGQGTKLTVL
0.301 nM | 0.161 pM | 1.19e-05 s⁻¹ | 7.39e+07 M⁻¹ s⁻¹ | LAVA3, protease-resistant variant of LAVA1 (Fab, V domains shown, as the Fab part of the heavy chain of Dm4 (LAVA1); linker; TSG6, human, LINK domain (HABP), with amino acid substitutions around the observed proteolytic sites; as the light chain of Dm4 (LAVA1); The substitutions are in Supplementary Data 2) VH: EVQLVESGGGLVQPGGSLRLSCTASGFSLTDYYYMTWVRQAPGKGLEWVGFIDPDDDPYYATWAKGRFTISRDNSKNTLYLQMNSLRAEDTAVYYCAGGDHNSGWGLDIWGQGTLVTVSS VL: EIVMTQSPSTLSASVGDRVIITCQASEIIHSWLAWYQQKPGKAPKLLIYLASTLASGVPSRFSGSGSGAEFTLTISSLQPDDFATYYCQNVYLASTNGANFGQGTKLTVL
– | 3.07 pM | 7.21e-05 s⁻¹ | 2.35e+07 M⁻¹ s⁻¹ | LAVA45, variant of LAVA1 with an additional disulfide bond in the LINK domain (Fab, V domains shown, as the Fab part of the heavy chain of Dm4 (LAVA1); linker; TSG6, human, LINK domain (HABP), with cysteine residues introduced for an additional disulfide bond and substitutions at and around the observed digestion sites; as the light chain of Dm4 (LAVA1); The substitutions are in Supplementary Data 2) VH: EVQLVESGGGLVQPGGSLRLSCTASGFSLTDYYYMTWVRQAPGKGLEWVGFIDPDDDPYYATWAKGRFTISRDNSKNTLYLQMNSLRAEDTAVYYCAGGDHNSGWGLDIWGQGTLVTVSS VL: EIVMTQSPSTLSASVGDRVIITCQASEIIHSWLAWYQQKPGKAPKLLIYLASTLASGVPSRFSGSGSGAEFTLTISSLQPDDFATYYCQNVYLASTNGANFGQGTKLTVL
– | 8.82 pM | 0.000198 s⁻¹ | 2.25e+07 M⁻¹ s⁻¹ | LAVA24, non-glycosylated variant of LAVA1 (Fab, V domains shown, as the Fab part of the heavy chain of Dm4 (LAVA1); linker; TSG6, human, LINK domain (HABP), the N-linked glycosylation site deleted by substitution of the asparagine residue; as the light chain of Dm4 (LAVA1); The substitution is in Supplementary Data 2) VH: EVQLVESGGGLVQPGGSLRLSCTASGFSLTDYYYMTWVRQAPGKGLEWVGFIDPDDDPYYATWAKGRFTISRDNSKNTLYLQMNSLRAEDTAVYYCAGGDHNSGWGLDIWGQGTLVTVSS VL: EIVMTQSPSTLSASVGDRVIITCQASEIIHSWLAWYQQKPGKAPKLLIYLASTLASGVPSRFSGSGSGAEFTLTISSLQPDDFATYYCQNVYLASTNGANFGQGTKLTVL
